Results taken from paper PMC3153463.

Molecular target: H103C mutant of RAV-1 IN CCD (RAV-1 IN CCD_(H103C)), residues 53-199 (Rous-associated virus type 1 (RAV-1))
Assay: cross-linking; engineered Cys103-Cys103 disulfide bond; denaturing SDS-PAGE in non-reducing conditions; mass spectrometry (MALDI-TOF) of tryptic peptides

Substance: H103C mutant of RAV-1 IN CCD (RAV-1 IN CCD_(H103C)), residues 53-199 (domain or fragment)
- stoichiometry N: 2
